The target of data set [1] is T1, MeCP2[MBD] (mouse (fragment sequence identical in …, UniProt Q9Z2D6 77-167)). Briefly: BLI; poly(dI-dC) 1 ug/ml; main text prints 63.17; BLI: 150 mM NaCl, 10 mM HEPES pH 8.0, 0.05% Tween20, poly(dI-dC) 1 ug/ml; MBD2 EMSA: 20 mM HEPES pH 7.9, 150 mM KCl, 8% Ficoll, 1 mM EDTA, 0.5 mM DTT, poly(dI-dC) 40 ng/ul, RT; N-term EMSA: 10 mM Tris-HCl pH 7.5, 150 mM KCl, 5% glycerol, 0.1 mM EDTA, 0.1 mg/ml BSA, 1 ug poly(dA-dT), on ice; pull-down at 4 C. As to conditions: protein: recombinant; tags: pET28 (NdeI/EcoRI), His tag (Ni-NTA purified; tag removal not mentioned); label: 5'-biotin on strand 1; 19 bp, 5' overhang 1 nt each end. (BLI is a label-free optical method that tracks binding on a fibre tip over time.)

For data set [2], the target named is T1, MeCP2[MBD]. The experiment in a line: BLI; poly(dI-dC) 1 ug/ml; BLI: 150 mM NaCl, 10 mM HEPES pH 8.0, 0.05% Tween20, poly(dI-dC) 1 ug/ml; MBD2 EMSA: 20 mM HEPES pH 7.9, 150 mM KCl, 8% Ficoll, 1 mM EDTA, 0.5 mM DTT, poly(dI-dC) 40 ng/ul, RT; N-term EMSA: 10 mM Tris-HCl pH 7.5, 150 mM KCl, 5% glycerol, 0.1 mM EDTA, 0.1 mg/ml BSA, 1 ug poly(dA-dT), on ice; pull-down at 4 C. The following applies: protein: recombinant; tags: pET28 (NdeI/EcoRI), His tag (Ni-NTA purified; tag removal not mentioned); label: 5'-biotin on strand 1; 19 bp, 5' overhang 1 nt each end.

The target of the next data set is MBD2[MBD] (human, UniProt Q9UBB5 139-224). The experiment in a line: EMSA; 2 uM protein; poly(dI-dC); BLI: 150 mM NaCl, 10 mM HEPES pH 8.0, 0.05% Tween20, poly(dI-dC) 1 ug/ml; MBD2 EMSA: 20 mM HEPES pH 7.9, 150 mM KCl, 8% Ficoll, 1 mM EDTA, 0.5 mM DTT, poly(dI-dC) 40 ng/ul, RT; N-term EMSA: 10 mM Tris-HCl pH 7.5, 150 mM KCl, 5% glycerol, 0.1 mM EDTA, 0.1 mg/ml BSA, 1 ug poly(dA-dT), on ice; pull-down at 4 C. The following applies: protein: recombinant; tags: N-terminal His6 removed by TEV; residual N-terminal SM; label: 5'-FAM on strand 1; 19 bp, 5' overhang 1 nt each end. (In general: A gel shift assay detects complexes by their altered migration in electrophoresis.)
MBD2[MBD], sequence (Q9UBB5 139-224): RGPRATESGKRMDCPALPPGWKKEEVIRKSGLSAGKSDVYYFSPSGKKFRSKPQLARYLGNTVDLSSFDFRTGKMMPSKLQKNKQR

The target of data set [3] is T2, MeCP2[N-term] WT (mouse, UniProt Q9Z2D6 1-205). The experiment in a line: EMSA; 0-4.5 uM protein; not different from mCG (p = 0.613); BLI: 150 mM NaCl, 10 mM HEPES pH 8.0, 0.05% Tween20, poly(dI-dC) 1 ug/ml; MBD2 EMSA: 20 mM HEPES pH 7.9, 150 mM KCl, 8% Ficoll, 1 mM EDTA, 0.5 mM DTT, poly(dI-dC) 40 ng/ul, RT; N-term EMSA: 10 mM Tris-HCl pH 7.5, 150 mM KCl, 5% glycerol, 0.1 mM EDTA, 0.1 mg/ml BSA, 1 ug poly(dA-dT), on ice; pull-down at 4 C. The following applies: protein: recombinant; tags: C-terminal 6xHis; label: 32P (T4 PNK); blunt.

A further data set has as its target MM2[N-term] (mouse, UniProt Q9Z2D6 1-93+Q9Z2E1:153-217+165-205, internal_change). Briefly: EMSA; 0-4.5 uM protein; BLI: 150 mM NaCl, 10 mM HEPES pH 8.0, 0.05% Tween20, poly(dI-dC) 1 ug/ml; MBD2 EMSA: 20 mM HEPES pH 7.9, 150 mM KCl, 8% Ficoll, 1 mM EDTA, 0.5 mM DTT, poly(dI-dC) 40 ng/ul, RT; N-term EMSA: 10 mM Tris-HCl pH 7.5, 150 mM KCl, 5% glycerol, 0.1 mM EDTA, 0.1 mg/ml BSA, 1 ug poly(dA-dT), on ice; pull-down at 4 C. The following applies: protein: recombinant; tags: C-terminal 6xHis; label: 32P (T4 PNK); blunt.

In data set [4] the target is T2, MeCP2[N-term] WT. Described as above. As to conditions: protein: recombinant; tags: C-terminal 6xHis; label: 32P (T4 PNK); blunt.

B1: BLI mCAT probe (dsDNA)
DNA 1: TCTGGAACATAATTCTTCTA
DNA 2: ATAGAAGAATTATGTTCCAG
modifications: 5mC at CAT: C8 of strand 1 (underlining lost in text)
On to B1, for which the dissociation constant (Kd) in the data set with MeCP2[MBD] [1] was 63.7 nM.

B2: BLI mCAC probe (dsDNA)
DNA 1: TCTGGAACACAATTCTTCTA
DNA 2: ATAGAAGAATTGTGTTCCAG
modifications: 5mC at CAC: C8 of strand 1 (underlining lost in text)
For the molecule B2, the Kd with MeCP2[MBD] [2] stood at 13.9 nM.

B3: FAM mCG probe (dsDNA)
DNA 1: TCTGGAACGGAATTCTTCTA
DNA 2: ATAGAAGAATTCCGTTCCAG
modifications: 5mC at CG: C8 of strand 1 and probably C13 of strand 2 (underlining lost in text)
Regarding B3, in the data set with MBD2[MBD], the binding result is on record as “binds”.

B4: Bdnf mCAC probe (dsDNA)
DNA 1: AAGCATGCAATGCCCTGGAACACAATTCTTCTAATAAAAGATGTATCATTTTAAATGC
DNA 2: GCATTTAAAATGATACATCTTTTATTAGAAGAATTGTGTTCCAGGGCATTGCATGCTT
modifications: 5mC at central CAC: C21 of strand 1 (underlining lost in text)
With B4, the binding result in the data set with MeCP2[N-term] WT [3] is “binds”; with MM2[N-term] it was “no binding”.

B5: Bdnf mCG probe (dsDNA)
DNA 1: AAGCATGCAATGCCCTGGAACGGAATTCTTCTAATAAAAGATGTATCATTTTAAATGC
DNA 2: GCATTTAAAATGATACATCTTTTATTAGAAGAATTCCGTTCCAGGGCATTGCATGCTT
modifications: 5mC at central CG: C21 of strand 1 and probably C37 of strand 2 (underlining lost in text)
As to B5, the binding result with MeCP2[N-term] WT [4] is on record as “binds”.

B6: BLI mCG probe (dsDNA)
DNA 1: TCTGGAACGGAATTCTTCTA
DNA 2: ATAGAAGAATTCCGTTCCAG
modifications: 5mC at CG: C8 of strand 1 and probably C13 of strand 2 (underlining lost in text)
Take B6: in the data set with MeCP2[MBD] [2], the Kd was 22.2 nM.

For orientation: Kd means the concentration at which binding is half-saturated.

Values taken from paper PMC7980222, “Neuronal non-CG methylation is an essential target for MeCP2 function”.
